Data on one substance can be found in doi:10.1101/2020.12.21.423864.

This experiment concerns the target Cadherin-11 extracellular domain 1 (Cad11-EC1), wild type, residues 1-98. The experiment in a line: NMR.

As a reminder, the stoichiometry N is the number of molecules, sites or subunits per partner or assembly. Take “Cadherin-11 extracellular domain 1 (Cad11-EC1), wild type, residues 1-98 (domain or fragment)”: the stoichiometry N was found to be 2.
